The record followed here is patent US20240115722A1.

The target in the assay is human EPH receptor A5 (EphA5) expressed on cells (human) (UniProt P54756). The assay is described as follows: high-throughput flow cytometry, HEK293T cells expressing wild-type EPHA5 versus vector alone, Fab at 0.50 µg/ml.
human EPH receptor A5 (EphA5) expressed on cells (human), sequence (P54756 25-1037 limits assumed): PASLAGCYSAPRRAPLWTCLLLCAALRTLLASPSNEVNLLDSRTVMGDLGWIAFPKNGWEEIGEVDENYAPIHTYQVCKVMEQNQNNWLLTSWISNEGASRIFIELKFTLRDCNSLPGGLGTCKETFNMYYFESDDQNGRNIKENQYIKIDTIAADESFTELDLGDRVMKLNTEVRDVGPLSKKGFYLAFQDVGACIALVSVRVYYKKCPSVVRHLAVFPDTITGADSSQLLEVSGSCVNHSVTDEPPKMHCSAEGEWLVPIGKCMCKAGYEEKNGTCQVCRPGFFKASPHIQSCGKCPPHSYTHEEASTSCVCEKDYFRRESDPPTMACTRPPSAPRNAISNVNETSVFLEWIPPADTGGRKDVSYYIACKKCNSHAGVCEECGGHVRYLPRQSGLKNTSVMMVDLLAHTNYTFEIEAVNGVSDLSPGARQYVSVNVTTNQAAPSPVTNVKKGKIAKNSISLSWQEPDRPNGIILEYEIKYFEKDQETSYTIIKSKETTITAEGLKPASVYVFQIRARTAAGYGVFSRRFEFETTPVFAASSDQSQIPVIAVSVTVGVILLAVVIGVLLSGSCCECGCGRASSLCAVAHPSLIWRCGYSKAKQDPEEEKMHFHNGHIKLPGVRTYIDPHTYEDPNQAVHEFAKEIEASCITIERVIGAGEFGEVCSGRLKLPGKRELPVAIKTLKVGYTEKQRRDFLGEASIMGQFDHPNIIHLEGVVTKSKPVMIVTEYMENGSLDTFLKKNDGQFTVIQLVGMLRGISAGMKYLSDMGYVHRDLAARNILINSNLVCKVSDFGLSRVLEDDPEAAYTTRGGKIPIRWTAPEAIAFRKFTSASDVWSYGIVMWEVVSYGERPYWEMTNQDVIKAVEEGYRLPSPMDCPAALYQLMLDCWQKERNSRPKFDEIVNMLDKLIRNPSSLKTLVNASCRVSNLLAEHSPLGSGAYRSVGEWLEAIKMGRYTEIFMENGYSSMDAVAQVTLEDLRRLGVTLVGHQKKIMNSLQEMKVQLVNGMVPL

B1: Fab derived from the H5K3 antibody (Fab, part only; not given: CH1 and upper hinge limits, V domains shown, not shown: another chain or arm of the molecule; a dimerising Fc or GST)
VH: EVQLVESGGGLVQPGGSLKLSCAASGFTFSTFGIHWVRQAPGKGLEWVAYISGASTTIYYADSVKGRFTISRDNSKNTLYLQMNSLRAEDTAVYYCARYGTSFPYGLDYWGQGTLVTVSS
VL: DIVMTQSPDSLAVSLGERATINCKASQSVDYDGDSYMNWYQQKPGKAPKLLIYGASNLESGIPDRFSGSGSGTDFTLTISRLEPEDAAVYYCQQSNEDPFTFGQGTKLEIK
Regarding B1, the Signal:Background came out at 70.

B2: Fab derived from the H4K3 antibody (Fab, part only; not given: CH1 and upper hinge limits, V domains shown, not shown: another chain or arm of the molecule; a dimerising Fc or GST)
VH: EVQLVESGGGLVQPGGSLKLSCAASGFTFSTFGIHWVRQAPGKGLEWVAYISGASTTIYYADTVKGRFTISRDNSKNTLYLQMNSLRAEDTAVYYCARYGTSFPYGLDYWGQGTLVTVSS
VL: DIVMTQSPDSLAVSLGERATINCKASQSVDYDGDSYMNWYQQKPGKAPKLLIYGASNLESGIPDRFSGSGSGTDFTLTISRLEPEDAAVYYCQQSNEDPFTFGQGTKLEIK
For the molecule B2, the Signal:Background was 66.
